Assay [1] addresses T1, human binding immunoglobulin protein (BiP), residues 26-654 ("full length") (human, UniProt P11021 26-654).
T1 construct: Constructs from Herwig Schueler, Karolinska Institutet; also called full-length BiP; source: E. coli BL21(DE3), purified (ammonium sulfate precipitation, nickel chromatography, Q-Sepharose, Superdex200)
Nature of the assay: NMR titration; 15N-labelled S1R(cd) (~250 uM) in DPC micelles titrated with unlabelled BiP constructs; 1H,15N SOFAST-HMQC, cross-peak intensities and chemical shifts; 100 mM NaCl, 30 mM DPC, 5 mM 2-mercaptoethanol, 20 mM HEPES pH 6.5, 37 C; full-length BiP without and with 2.5 mM calcium chloride, NBD without calcium, SBD with 2.5 mM calcium. As to conditions: both partners purified.

In assay [2] the target is T2, isolated nucleotide binding domain of human BiP (residues 26-410) (human, UniProt P11021 26-410).
T2 construct: also called NBD; BiP NBD; source: E. coli BL21(DE3), purified (ammonium sulfate precipitation, nickel chromatography, Q-Sepharose, Superdex200)
The description is as above. The conditions noted are these: both partners purified.

T2 sequence (P11021 26-410): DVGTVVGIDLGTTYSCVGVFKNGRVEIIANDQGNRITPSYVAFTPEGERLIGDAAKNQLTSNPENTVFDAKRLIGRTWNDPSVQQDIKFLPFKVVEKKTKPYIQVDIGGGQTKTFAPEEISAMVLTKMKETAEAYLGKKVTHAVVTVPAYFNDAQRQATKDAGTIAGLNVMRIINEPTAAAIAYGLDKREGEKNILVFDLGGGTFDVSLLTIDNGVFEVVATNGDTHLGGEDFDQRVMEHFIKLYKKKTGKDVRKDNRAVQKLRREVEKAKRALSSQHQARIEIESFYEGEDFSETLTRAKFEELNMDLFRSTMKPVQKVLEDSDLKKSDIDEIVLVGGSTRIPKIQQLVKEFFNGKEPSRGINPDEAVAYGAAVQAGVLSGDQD
T1 sequence (P11021 26-654): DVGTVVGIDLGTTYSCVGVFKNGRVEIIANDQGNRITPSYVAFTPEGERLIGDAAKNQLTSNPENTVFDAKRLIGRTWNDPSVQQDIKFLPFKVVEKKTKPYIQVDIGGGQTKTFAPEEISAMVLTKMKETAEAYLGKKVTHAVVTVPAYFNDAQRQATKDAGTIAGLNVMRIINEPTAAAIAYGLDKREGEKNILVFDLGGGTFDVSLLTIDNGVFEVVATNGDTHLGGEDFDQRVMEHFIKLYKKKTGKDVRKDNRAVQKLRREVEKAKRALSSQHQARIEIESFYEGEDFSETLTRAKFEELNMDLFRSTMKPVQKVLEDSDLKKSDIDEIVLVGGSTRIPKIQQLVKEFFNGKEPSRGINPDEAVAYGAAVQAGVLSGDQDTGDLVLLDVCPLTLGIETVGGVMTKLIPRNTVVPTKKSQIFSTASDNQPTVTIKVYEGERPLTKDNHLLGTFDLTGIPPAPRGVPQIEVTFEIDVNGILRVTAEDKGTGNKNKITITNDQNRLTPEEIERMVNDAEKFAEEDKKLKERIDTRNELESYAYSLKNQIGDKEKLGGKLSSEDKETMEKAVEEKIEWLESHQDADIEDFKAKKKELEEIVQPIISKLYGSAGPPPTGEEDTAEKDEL

B1: human sigma-1 receptor chaperone domain (residues 112-223) (domain or fragment, UniProt Q99720 112-223, looked up)
chain: GSRGHSGRYWAEISDTIISGTFHQWREGTTKSEVFYPGETVVHGPGEATAVEWGPNTWMVEYGRGVIPSTLAFALADTVFSTQDFLTLFYTLRSYARGLRLELTTYLFGQDP
notes: sigma-1 receptor (S1R), human, residues 112-223 (chaperone domain; 223 is the C-terminal residue); 15N-labelled for the titrations; No cleavage of the tag is described; also called S1R(cd); S1R chaperone domain
Consider B1, for which the binding result in assay [1] and in assay [2] was “binds” each time.

The values are drawn from publication PMC3774411, “Characterization of the Human Sigma-1 Receptor Chaperone Domain Structure and Binding Immunoglobulin Protein (BiP) Interactions*” (The Journal of Biological Chemistry, 2013).
